Data taken from PMC4319731, “A Lipoxygenase from Red Alga Pyropia haitanensis, a Unique Enzyme Catalyzing the Free Radical Reactions of Polyunsaturated Fatty Acids with Triple Ethylenic Bonds” (PLoS ONE, 2015).

B1: PhLOX2 (Pyropia haitanensis) (protein)
chain: MAHTGTLGGSGCGQPLVAALKAHRTVVDGTIDAPVEAVWAKLRDFGGWPAWWPAMGATAVTPPGPPAVGQERAFTANGRSYVEALTWLDEGAHLLEYRLVSADPPLLDAGARTTFEAVPAGARSTRLTVECAFQPAYNVDAGVIRGGQTAAYESIMEGLQHALVEGPPLRPLRLTVTKNELRREVTAGHLLLTMGGVVLHRLRLTGAGTPVSADAVTVQLSRADAELRLELLDAKDTPVAAGSVAVGALTTPPVTHGVVLSNPHGDPVGTYTVSVVNAPPSSTVEAATALLFSLGKSLAEQLLQTVFFMGHDDGRWAYGEYTAADGTALTMPKYCAVLPPSQAIRPERLGQLFARNAEFLYAQAELLKLLVDTNPPGLEELPQAVRDKLAKEAALQKKIKERVTHEPSPFRLTFGGDHPAPERVIETWRDDEEQAAQMIRGINPMKLRRVTDAAAELPPAFHGLRDDAGRDVAALAAANALFYADYAELMVGELDEETGAYHHQAESAVLDSTVGGVKYWYAPRLVVYKTLAGKLSFLGFTLTRRGDAPGDDEMYTAAGTPPVRYTLAKIHLTCADNQVHQFVSHLGMTHLLAEPFIVAAHNVLPPSHIVSALLAVHFQDTIGINFLARQTLVSTVAPLTDATFSVGTGHALSIFAAAYDGWDFLGDNFVGALAKRGFTADAAADGLHDFYYREDGFRVWNALTRYVSTVLHGHYGAGTAADDAVAADPVLAAWCAEMRDPAAAGVASFPAAFTTVGALVEAVVSIIFLCSAQHAAVNFPQRDYVAYVPNRPDSVRLPMPPRPAAGADNDEAVVGATLPDVAVSVFQTLFAHLLTTPSDAPVSSYAALKEDHPAAWGAFTADLAQLQRDIEARNAALVAANEAPYPYLAPENMPLSIDI
notes: monomer by size exclusion

Tests used:
PhLOX2 = biological target: T1, PhLOX2 (Pyropia haitanensis, UniProt R9UEL2); assay: UV absorbance of conjugated diene at […] nm, Lineweaver-Burk; format: biochemical; details: pH 8.0, 20°C, 12 μM enzyme, substrate 20-200 μM; O2 co-substrate
T1 construct: gene lox2; monomer by size exclusion

purified protein [1] = substrate: CC/C=C\C/C=C\C/C=C\C/C=C\C/C=C\C/C=C\CCC(=O)O; assay: purified protein; format: biochemical, Pyropia haitanensis; details: pH 8.0, 20°C, 12 μM enzyme, substrate 20-200 μM, O2 co-substrate
purified protein [2] = substrate: CC/C=C\C/C=C\C/C=C\C/C=C\C/C=C\CCCC(=O)O; assay: purified protein; format: biochemical, Pyropia haitanensis; details: pH 8.0, 20°C, 12 μM enzyme, substrate 20-200 μM, O2 co-substrate
purified protein [3] = substrate: CCCCC/C=C\C/C=C\C/C=C\C/C=C\CCCC(=O)O; assay: purified protein; format: biochemical, Pyropia haitanensis; details: pH 8.0, 20°C, 12 μM enzyme, substrate 20-200 μM, O2 co-substrate

Molecule | Km (PhLOX2) [µM] | Km (purified protein [1]) [µM] | kcat (purified protein [1]) [s⁻¹] | kcat/Km (purified protein [1]) [M⁻¹ s⁻¹] | Km (purified protein [2]) [µM] | kcat (purified protein [2]) [s⁻¹] | kcat/Km (purified protein [2]) [M⁻¹ s⁻¹] | Km (purified protein [3]) [µM] | kcat (purified protein [3]) [s⁻¹] | kcat/Km (purified protein [3]) [M⁻¹ s⁻¹]
CCCCC/C=C\C/C=C\C/C=C\CCCCC(=O)O [GLA] | 151 |  |  |  |  |  |  |  |  | 
B1 |  | 91.59 | 12.6 | 138000 | 54.09 | 62.5 | 1.16e+06 | 114.17 | 47.5 | 416000
